Assay in all cases: SPR (Biacore), bound amount, IL6R-BF648/IL6R-L = 100
One experiment deals with T1, FcγRIa (human, UniProt P12314 16-292, limits assumed).
T1 construct: also called FcgRIa; CD64

The target in the next experiment is T2, FcγRIIa type H (human, UniProt P12318 36-217).
T2 construct: also called FcγRIIaH; FcγRIIH
T2 sequence: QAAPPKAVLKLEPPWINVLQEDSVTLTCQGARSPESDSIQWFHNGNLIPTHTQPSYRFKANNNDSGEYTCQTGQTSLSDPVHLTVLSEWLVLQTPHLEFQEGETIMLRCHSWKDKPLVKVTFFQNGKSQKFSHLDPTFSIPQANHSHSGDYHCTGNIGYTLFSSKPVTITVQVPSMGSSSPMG

Another experiment addresses T3, FcγRIIb (human, UniProt P31994 43-217, limits assumed).
T3 construct: also called FcgRIIb; FcγIIB
T3 sequence: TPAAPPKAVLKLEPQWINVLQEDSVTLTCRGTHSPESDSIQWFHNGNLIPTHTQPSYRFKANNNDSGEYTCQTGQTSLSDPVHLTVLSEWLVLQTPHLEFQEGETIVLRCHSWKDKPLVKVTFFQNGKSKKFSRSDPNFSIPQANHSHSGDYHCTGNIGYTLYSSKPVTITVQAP

The next experiment concerns the target T4, FcγRIIIa type V (human, UniProt P08637 17-208, limits assumed).
T4 construct: also called FcγRIIIaV; FcgRIIIaV

T1 sequence (P12314 16-292 limits assumed): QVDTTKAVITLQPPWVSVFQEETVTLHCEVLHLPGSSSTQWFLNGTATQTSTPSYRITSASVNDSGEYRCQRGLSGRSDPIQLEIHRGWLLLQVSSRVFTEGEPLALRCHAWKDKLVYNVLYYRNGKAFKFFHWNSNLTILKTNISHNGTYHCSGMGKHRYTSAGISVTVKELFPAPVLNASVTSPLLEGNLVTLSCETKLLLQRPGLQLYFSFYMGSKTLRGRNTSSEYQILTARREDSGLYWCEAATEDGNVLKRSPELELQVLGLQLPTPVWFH
T4 sequence (P08637 other isoform, or with tags, fused parts or gaps limits assumed): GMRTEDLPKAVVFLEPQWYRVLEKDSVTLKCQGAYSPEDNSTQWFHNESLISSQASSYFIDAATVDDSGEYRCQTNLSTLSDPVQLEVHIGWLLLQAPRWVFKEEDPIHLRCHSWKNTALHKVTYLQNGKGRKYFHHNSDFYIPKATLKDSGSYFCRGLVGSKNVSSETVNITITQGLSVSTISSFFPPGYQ
Description for FcγRIIIa type V: (§1) According to the following method, relative binding activities were calculated for the results of analyzing interactions with the respective FcγRs.
Description for FcγRIIa type H: as §1
Description for FcγRIIb: as §1
Description for FcγRIa: as §1

B1: IL6R-BP088/IL6R-L (antibody, human IgG1)
heavy: QVQLQESGPGLVKPSETLSLTCAVSGHSISHDHAWSWVRQPPGEGLEWIGFISYSGITNYNPSLQGRVTISRDNSKNTLYLQMNSLRAEDTAVYYCARSLARTTAMDYWGEGTLVTVSSASTKGPSVFPLAPSSKSTSGGTAALGCLVKDYFPEPVTVSWNSGALTSGVHTFPAVLQSSGLYSLSSVVTVPSSSLGTQTYICNVNHKPSNTKVDKKVEPKSCDKTHTCPPCPAPELLGDDSVFLFPPKPKDTLMISRTPEVTCVVVDVSHEDPEVKFNWYVDGVEVHNAKTKPREEQYNSTYRVVSVLTVLHQDWLNGKEYKCKVSNAALPKPIEKTISKAKGQPREPQVYTLPPSRDELTKNQVSLTCLVKGFYPSDIAVEWESNGQPENNYKTTPPVLDSDGSFFLYSKLTVDKSRWQQGNVFSCSVMHEALHNHYTQESLSLSP
light: DIQMTQSPSSLSASVGDRVTITCRASQDISSYLNWYQQKPGKAPKLLIYYTSRLHSGVPSRFSGSGSGTDFTFTISSLQPEDIATYYCQQGNTLPYTFGQGTKVEIK
notes: IgG1; Fc variant of IL6R-B3; copies: 2 + 2
Consider B1, for which the relative binding activity in the experiment with FcγRIa was 25 % of control; with FcγRIIa type H, 166 % of control; with FcγRIIb, 161 % of control; in the experiment with FcγRIIIa type V, 122 % of control.

B2: IL6R-BP144/IL6R-L (antibody, human IgG1)
heavy: QVQLQESGPGLVKPSETLSLTCAVSGHSISHDHAWSWVRQPPGEGLEWIGFISYSGITNYNPSLQGRVTISRDNSKNTLYLQMNSLRAEDTAVYYCARSLARTTAMDYWGEGTLVTVSSASTKGPSVFPLAPSSKSTSGGTAALGCLVKDYFPEPVTVSWNSGALTSGVHTFPAVLQSSGLYSLSSVVTVPSSSLGTQTYICNVNHKPSNTKVDKKVEPKSCDKTHTCPPCPAPELLGDDSVFLFPPKPKDTLMISRTPEVTCVVVDVSHEDPEVKFNWYVDGVEVHNAKTKPREEQYNSTYRVVSVLTVLHQDWLNGKEYKCKVSNAALPAPIEKTISKAKGQPREPQVYTLPPSRDELTKNQVSLTCLVKGFYPSDIAVEWESNGQPENNYKTTPPVLDSDGSFFLYSKLTVDKSRWQQGNVFSCSVMHEALHNHYTQESLSLSP
light: DIQMTQSPSSLSASVGDRVTITCRASQDISSYLNWYQQKPGKAPKLLIYYTSRLHSGVPSRFSGSGSGTDFTFTISSLQPEDIATYYCQQGNTLPYTFGQGTKVEIK
notes: as for B1
With B2, the relative binding activity was 64 % of control with FcγRIa, 108 % of control with FcγRIIa type H, 121 % of control with FcγRIIb and 128 % of control with FcγRIIIa type V.

B3: IL6R-BP129/IL6R-L (antibody, human IgG1)
heavy: QVQLQESGPGLVKPSETLSLTCAVSGHSISHDHAWSWVRQPPGEGLEWIGFISYSGITNYNPSLQGRVTISRDNSKNTLYLQMNSLRAEDTAVYYCARSLARTTAMDYWGEGTLVTVSSASTKGPSVFPLAPSSKSTSGGTAALGCLVKDYFPEPVTVSWNSGALTSGVHTFPAVLQSSGLYSLSSVVTVPSSSLGTQTYICNVNHKPSNTKVDKKVEPKSCDKTHTCPPCPAPDLLGGDSVFLFPPKPKDTLMISRTPEVTCVVVDVSHEDPEVKFNWYVDGVEVHNAKTKPREEQDNSTYRVVSVLTVLHQDWLNGKEYKCKVSNKALPKPIEKTISKAKGQPREPQVYTLPPSRDELTKNQVSLTCLVKGFYPSDIAVEWESNGQPENNYKTTPPVLDSDGSFFLYSKLTVDKSRWQQGNVFSCSVMHEALHNHYTQESLSLSP
light: DIQMTQSPSSLSASVGDRVTITCRASQDISSYLNWYQQKPGKAPKLLIYYTSRLHSGVPSRFSGSGSGTDFTFTISSLQPEDIATYYCQQGNTLPYTFGQGTKVEIK
notes: as for B1
Regarding B3, the relative binding activity with FcγRIa was 68 % of control; with FcγRIIa type H, 98 % of control; in the experiment with FcγRIIb it was 138 % of control; with FcγRIIIa type V, 95 % of control.

B4: IL6R-BP132/IL6R-L (antibody, human IgG1)
heavy: QVQLQESGPGLVKPSETLSLTCAVSGHSISHDHAWSWVRQPPGEGLEWIGFISYSGITNYNPSLQGRVTISRDNSKNTLYLQMNSLRAEDTAVYYCARSLARTTAMDYWGEGTLVTVSSASTKGPSVFPLAPSSKSTSGGTAALGCLVKDYFPEPVTVSWNSGALTSGVHTFPAVLQSSGLYSLSSVVTVPSSSLGTQTYICNVNHKPSNTKVDKKVEPKSCDKTHTCPPCPAPDLLGGDSVFLFPPKPKDTLMISRTPEVTCVVVDVSHEDPEVKFNWYVDGVEVHNAKTKPREEQYNSTYRVVSVLTVLHQDWLNGKEYKCKVSNAALPKPIEKTISKAKGQPREPQVYTLPPSRDELTKNQVSLTCLVKGFYPSDIAVEWESNGQPENNYKTTPPVLDSDGSFFLYSKLTVDKSRWQQGNVFSCSVMHEALHNHYTQESLSLSP
light: DIQMTQSPSSLSASVGDRVTITCRASQDISSYLNWYQQKPGKAPKLLIYYTSRLHSGVPSRFSGSGSGTDFTFTISSLQPEDIATYYCQQGNTLPYTFGQGTKVEIK
notes: as for B1
Turning to B4, the relative binding activity with FcγRIa is 91 % of control; with FcγRIIa type H, 130 % of control; in the experiment with FcγRIIb, 150 % of control; with FcγRIIIa type V, 120 % of control.

B5: IL6R-BP145/IL6R-L (antibody, human IgG1)
heavy: QVQLQESGPGLVKPSETLSLTCAVSGHSISHDHAWSWVRQPPGEGLEWIGFISYSGITNYNPSLQGRVTISRDNSKNTLYLQMNSLRAEDTAVYYCARSLARTTAMDYWGEGTLVTVSSASTKGPSVFPLAPSSKSTSGGTAALGCLVKDYFPEPVTVSWNSGALTSGVHTFPAVLQSSGLYSLSSVVTVPSSSLGTQTYICNVNHKPSNTKVDKKVEPKSCDKTHTCPPCPAPEYLGDDSVFLFPPKPKDTLMISRTPEVTCVVVDVSHEDPEVKFNWYVDGVEVHNAKTKPREEQYNSTYRVVSVLTVLHQDWLNGKEYKCKVSNKALPAPIEKTISKAKGQPREPQVYTLPPSRDELTKNQVSLTCLVKGFYPSDIAVEWESNGQPENNYKTTPPVLDSDGSFFLYSKLTVDKSRWQQGNVFSCSVMHEALHNHYTQESLSLSP
light: DIQMTQSPSSLSASVGDRVTITCRASQDISSYLNWYQQKPGKAPKLLIYYTSRLHSGVPSRFSGSGSGTDFTFTISSLQPEDIATYYCQQGNTLPYTFGQGTKVEIK
notes: as for B1
B5: the relative binding activity is 41 % of control with FcγRIa, 224 % of control with FcγRIIa type H, 152 % of control in the experiment with FcγRIIb and 153 % of control with FcγRIIIa type V.

B6: IL6R-BP143/IL6R-L (antibody, human IgG1)
heavy: QVQLQESGPGLVKPSETLSLTCAVSGHSISHDHAWSWVRQPPGEGLEWIGFISYSGITNYNPSLQGRVTISRDNSKNTLYLQMNSLRAEDTAVYYCARSLARTTAMDYWGEGTLVTVSSASTKGPSVFPLAPSSKSTSGGTAALGCLVKDYFPEPVTVSWNSGALTSGVHTFPAVLQSSGLYSLSSVVTVPSSSLGTQTYICNVNHKPSNTKVDKKVEPKSCDKTHTCPPCPAPEYLGGDSVFLFPPKPKDTLMISRTPEVTCVVVDVSHEDPEVKFNWYVDGVEVHNAKTKPREEQYNSTYRVVSVLTVLHQDWLNGKEYKCKVSNAALPAPIEKTISKAKGQPREPQVYTLPPSRDELTKNQVSLTCLVKGFYPSDIAVEWESNGQPENNYKTTPPVLDSDGSFFLYSKLTVDKSRWQQGNVFSCSVMHEALHNHYTQESLSLSP
light: DIQMTQSPSSLSASVGDRVTITCRASQDISSYLNWYQQKPGKAPKLLIYYTSRLHSGVPSRFSGSGSGTDFTFTISSLQPEDIATYYCQQGNTLPYTFGQGTKVEIK
notes: as for B1
For B6, the relative binding activity with FcγRIa is 86 % of control; with FcγRIIa type H, 143 % of control; with FcγRIIb, 133 % of control; with FcγRIIIa type V it was 114 % of control.

B7: IL6R-BP089/IL6R-L (antibody, human IgG1)
heavy: QVQLQESGPGLVKPSETLSLTCAVSGHSISHDHAWSWVRQPPGEGLEWIGFISYSGITNYNPSLQGRVTISRDNSKNTLYLQMNSLRAEDTAVYYCARSLARTTAMDYWGEGTLVTVSSASTKGPSVFPLAPSSKSTSGGTAALGCLVKDYFPEPVTVSWNSGALTSGVHTFPAVLQSSGLYSLSSVVTVPSSSLGTQTYICNVNHKPSNTKVDKKVEPKSCDKTHTCPPCPAPEYLGGDSVFLFPPKPKDTLMISRTPEVTCVVVDVSHEDPEVKFNWYVDGVEVHNAKTKPREEQYNSTYRVVSVLTVLHQDWLNGKEYKCKVSNAALPKPIEKTISKAKGQPREPQVYTLPPSRDELTKNQVSLTCLVKGFYPSDIAVEWESNGQPENNYKTTPPVLDSDGSFFLYSKLTVDKSRWQQGNVFSCSVMHEALHNHYTQESLSLSP
light: DIQMTQSPSSLSASVGDRVTITCRASQDISSYLNWYQQKPGKAPKLLIYYTSRLHSGVPSRFSGSGSGTDFTFTISSLQPEDIATYYCQQGNTLPYTFGQGTKVEIK
notes: as for B1
As to B7, the relative binding activity is 43 % of control in the experiment with FcγRIa, 186 % of control in the experiment with FcγRIIa type H, 147 % of control with FcγRIIb and 136 % of control with FcγRIIIa type V.

B8: IL6R-BP133/IL6R-L (antibody, human IgG1)
heavy: QVQLQESGPGLVKPSETLSLTCAVSGHSISHDHAWSWVRQPPGEGLEWIGFISYSGITNYNPSLQGRVTISRDNSKNTLYLQMNSLRAEDTAVYYCARSLARTTAMDYWGEGTLVTVSSASTKGPSVFPLAPSSKSTSGGTAALGCLVKDYFPEPVTVSWNSGALTSGVHTFPAVLQSSGLYSLSSVVTVPSSSLGTQTYICNVNHKPSNTKVDKKVEPKSCDKTHTCPPCPAPDYLGGDSVFLFPPKPKDTLMISRTPEVTCVVVDVSHEDPEVKFNWYVDGVEVHNAKTKPREEQYNSTYRVVSVLTVLHQDWLNGKEYKCKVSNKALPKPIEKTISKAKGQPREPQVYTLPPSRDELTKNQVSLTCLVKGFYPSDIAVEWESNGQPENNYKTTPPVLDSDGSFFLYSKLTVDKSRWQQGNVFSCSVMHEALHNHYTQESLSLSP
light: DIQMTQSPSSLSASVGDRVTITCRASQDISSYLNWYQQKPGKAPKLLIYYTSRLHSGVPSRFSGSGSGTDFTFTISSLQPEDIATYYCQQGNTLPYTFGQGTKVEIK
notes: as for B1
B8: the relative binding activity is 41 % of control with FcγRIa, 151 % of control with FcγRIIa type H, 137 % of control with FcγRIIb and 114 % of control with FcγRIIIa type V.

The record behind these values is US20200199241A1 (Chugai, published 2020).
